From the supplement of paper PMC9170038

Tested on: MS2 coat protein
Test: apparent KD of MS2 coat protein; higher = weaker reporter binding
Details: Eterna round: R107
In short: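 SNAP-549-labelled MS2 coat protein was titrated onto designed RNA switches that had been transcribed on-chip from Illumina sequencing clusters. Amounts doubled from 0.7 or 1.5 nM to 3 µM in 100 mM Tris-HCl pH 7.5, 80 mM KCl, 4 mM MgCl2, with constant ligand or without. Apparent KD is the median per design of normalised cluster binding-curve fits.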

[1] = input ligand: theophylline 20 uM
[2] = input ligand: theophylline 2 mM
[3] = input ligand: tryptophan 2.4 mM

| Sequence | apparent KD of MS2 coat protein (input ligand: arginine 13.2 mM) | apparent KD of MS2 coat protein (input ligand: none) | apparent KD of MS2 coat protein [1] | apparent KD of MS2 coat protein [2] | apparent KD of MS2 coat protein [3] |
| --- | --- | --- | --- | --- | --- |
| AUACAUGAGGAUCACCCAUGUCAUUCAGAAGGAGCGUCAUUUUAGACAGGUAGGUCGCUGAUAUUAUUCUUAUACUUUAUGUUUA [JR_ExcArginiA_Sub022] | 0.021 µM | 0.0177 µM | 0.026 µM | 0.0195 µM | 0.0202 µM |
| AUACAUGAGGAUCACCCAUGUGAUGGCCGGCGAGGACCGGUACGGCCGCCACUCGUGAUCCGUCCUGAGAGCAAAGCUCUCAGCA [Macete] | 0.076 µM | 0.141 µM | 0.258 µM | 0.292 µM | 0.337 µM |
| AUACAUGAGGAUCACCCAUGUUAUAGUGAAGGAGCGACAUUUAUGUCAGGUAGGUCGCACUAUUGUUUAAUGAUUCUUGGAUCUU [JR_ExcArginiA_Sub017] | 0.0169 µM | 0.0152 µM | 0.0224 µM | 0.0151 µM | 0.0185 µM |
| AUAGUCUAGAGUGAUACCAGACUACAUGAGGAUCACCCAUGUAUCUUUUGGUUAUCAUGUGUCCCUUGGCAGCACGCAUGUAUAG [JR_ExcTheophyB_Sub013] | 0.0113 µM |  | 0.0124 µM |  | 0.00994 µM |
| AUCAUAAUAGCCUCGUGUAAUUAAAUGGAACGAGGACCGGUACGGCCGCCACUCGAUAUAAACAUGAGGAUCACCCAUGUAAGCA [JR_ExcTryptoA_Sub004] | 0.0305 µM |  | 0.0441 µM | 0.0582 µM |  |
| AUCCCGUGAGCGGCCGCCACUGGAGGCUUUGCGCGACAUGAGGAUCACCCAUGUGUGCCCGGCGUUAGGACCGGGUUCGCGUGGA [#1 Same State - Tryptophan B Attempt #17 (HarryS)] | 0.0293 µM | 0.0256 µM | 0.0713 µM | 0.0651 µM | 0.034 µM |
| AUCGCACCUGGUGAUACCAGCGUUUGCUCGCGACAUGAGGAUCACCCAUGUGGCCAGUGAUGCCCUUGGCAGCAUGGGCGGUGCA [Same State - Theophylline B (Freestyle 28)] | 0.111 µM |  | 0.412 µM |  | 0.349 µM |
| AUCGUACCUGAUGAUACCAGCAUGUGAUCAUAACAUGAGGAUCACCCAUGUAAUCAGUGAUGCCCUUGGCAGCAUGAUCGGUACA [Same State - Theophylline B (Freestyle 13)] | 0.0455 µM |  | 0.0796 µM |  | 0.0567 µM |
| AUCGUACCUGGUGAUACCAGCAAGUGAUUAUAACAUGAGGAUCACCCAUGUAAUCAGUGAUGCCCUUGGCAGCAUAAUCGGUACA [#24 Same State - Theophylline B] | 0.0269 µM |  | 0.0378 µM |  | 0.0267 µM |
| AUGCCUAGUGGAAGGAGCGAGGGUCUUCCCAACAUGAGGAUCACCCAUGUUCUUUUACACCCUCAGGUAGGUCGCCAUUGGGACA [Tilexete] | 0.0417 µM | 0.0646 µM | 0.107 µM | 0.0476 µM | 0.0828 µM |
| AUGUCACAUGAGGAUCACCCAUGUAUGGAUACCAGUUUAGUGAAUAACCCUUGGCAGCCAAGGAUGCGACAGAAAUCCGGAAAAC [theeternabot_sameState_MS2_Theo_A_22] | 0.019 µM |  | 0.0266 µM |  | 0.0205 µM |
| AUUAACAUGAGGAUCACCCAUGUGGCCCACCGAGGACCGGUACGGCCGCCACUCGUCGGAAAGGCUAAAUUUAUGAAGUCCAAAA [theeternabot_sameState_MS2_Trp_A_40] | 0.0186 µM |  | 0.0254 µM | 0.017 µM |  |
| AUUAAUAAUAUGUAGACGGCGGAGACGAGACGAGGACCGGUACGGCCGCCACUCGUGUUAGUUAACAUGAGGAUCACCCAUGUUA [#10 Tryptophan A Same State] | 0.0112 µM |  | 0.0175 µM | 0.0139 µM |  |
| AUUCAUGAAAACAUGACAUAGGGAUCACUCCGAGGACCGGUACGGCCGCCACUCGCGAGGAGGCACAUGAGGAUCACCCAUGUUA [SS Tryp A #3] | 0.0368 µM | 0.115 µM | 0.146 µM | 0.18 µM | 0.108 µM |
| AUUGUGAAGUCGGCCGCCACUGGUUAGUUUAACCUCAUGUAACAUGAGGAUCACCCAUGUAAUGACAGGACCGGGACAAUAGUAA [JR_ExcTryptoB_Sub015] | 0.103 µM |  | 0.126 µM | 0.194 µM |  |
| AUUUACAUGGUCAUAUAUAUAUCGUCAGAUACCAGACUAGAUAUUGUCCCUUGGCAGCUGUUACAUGAGGAUCACCCAUGUUAUA [JR_Nu_ExcTheophyA_Sub020] | 0.0545 µM |  | 0.113 µM |  | 0.178 µM |
| AUUUUCGUAGGUUAAAGUUUAGAAACUGAAGGAGCGUGGUAUUACACAGGUAGGUCGCAGAUUUUACAUGAGGAUCACCCAUGUU [JR_ExcArginiA_Sub011] | 0.0149 µM | 0.022 µM | 0.0254 µM | 0.0206 µM | 0.0177 µM |
| CAAACAUGAGGAUCACCCAUGUAAUCAGAUACCAGUGACGAAAGUCACCCUUGGCAGCUGAGUACAUAUUGGCAGAGGUGUUUGA [EThA NP+V+V2 #7] | 0.0414 µM |  | 0.0942 µM |  | 0.0644 µM |
| CAAUCAAUCAAUCAAUCAAUCAACCAUGAAGGAGCGUGGGAAACCACAGGUAGGUCGCAUGGAAAACAUGAGGAUCACCCAUGUA [Casablanca] | 0.0221 µM | 0.0309 µM | 0.0452 µM | 0.0364 µM | 0.0292 µM |
